1 substance from PMC2572730, “Structural Basis for the Recognition of Histone H4 by the Histone-Chaperone RbAp46” (Structure(London, England:1993), 2008) can be followed below.

The target in this test is histone H3 (Xenopus laevis, recombinant full length) (Xenopus laevis) (UniProt P84233). In words: cross-linking; BS3 crosslinker in 1.1 M NaCl, 20 mM HEPES (pH 7.5), 10 mM DTT; ~10 uM RbAp46, H3/H4 or RbAp46/H3/H4; room temperature, 30 min; NuPAGE, Coomassie and blots with anti-H3 and anti-H4.

One may read the stoichiometry N as the number of molecules, sites or subunits per partner or assembly. With “histone H3 (Xenopus laevis, recombinant full length) (from UniProt P84233 1-136) (natural protein)”, the stoichiometry N was determined as 2.
